Patent publication US20240132591A1 (PANDION OPERATIONS, published 2024)
Numbering of substitutions follows the chain as printed. “And” between values parts separate entries of the source, which are not always exact repeats. Identical values can stand only once.

T1: Human MAdCAM (human, UniProt Q13477 19-317, limits assumed)
T1 construct: also called huMAdCAM; human MAdCAM-1
T1 sequence (looked up): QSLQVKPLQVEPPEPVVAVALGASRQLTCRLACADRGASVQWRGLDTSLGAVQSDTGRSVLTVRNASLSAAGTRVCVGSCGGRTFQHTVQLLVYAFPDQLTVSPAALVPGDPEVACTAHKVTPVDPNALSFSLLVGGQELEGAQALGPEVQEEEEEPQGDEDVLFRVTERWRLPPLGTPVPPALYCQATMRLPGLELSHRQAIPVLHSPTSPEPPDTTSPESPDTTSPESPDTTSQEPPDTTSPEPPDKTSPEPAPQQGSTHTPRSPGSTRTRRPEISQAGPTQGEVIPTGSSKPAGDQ

T2: mouse MAdCAM (mouse, UniProt Q61826 22-365, limits assumed)
T2 construct: also called mouse MAdCAM-1
T2 sequence (looked up): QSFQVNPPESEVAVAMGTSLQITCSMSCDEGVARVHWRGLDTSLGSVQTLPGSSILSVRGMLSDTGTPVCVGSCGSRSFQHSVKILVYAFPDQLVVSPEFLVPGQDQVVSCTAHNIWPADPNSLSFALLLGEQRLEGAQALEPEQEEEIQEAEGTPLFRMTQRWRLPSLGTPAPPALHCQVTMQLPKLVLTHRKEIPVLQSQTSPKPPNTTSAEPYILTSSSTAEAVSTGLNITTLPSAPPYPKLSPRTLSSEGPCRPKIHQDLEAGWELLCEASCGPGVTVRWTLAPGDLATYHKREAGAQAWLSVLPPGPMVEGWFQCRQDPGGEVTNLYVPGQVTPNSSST

B1: PMAB1 (bispecific antibody, human IgG1, kappa)
heavy: EVQLLESGGGLVQPGGSLRLSCAASGFTFSNSDMSWVRQAPGKGLEWVSGITISGGSTYYADSVKGRFTISRDNSKNTLYLQMNSLRAEDTAVYYCARGRGGSGWLDYWGQGTLVTVSSASTKGPSVFPLAPSSKSTSGGTAALGCLVKDYFPEPVTVSWNSGALTSGVHTFPAVLQSSGLYSLSSVVTVPSSSLGTQTYICNVNHKPSNTKVDKKVEPKSCDKTHTCPPCPAPEAAGAPSVFLFPPKPKDTLMISRTPEVTCVVVDVSHEDPEVKFNWYVDGVEVHNAKTKPREEQYNSTYRVVSVLTVLHQDWLNGKEYKCKVSNKALPAPIEKTISKAKGQPREPQVYTLPPSREEMTKNQVSLTCLVKGFYPSDIAVEWESNGQPENNYKTTPPVLDSDGSFFLYSKLTVDKSRWQQGNVFSCSVMHEALHNHYTQKSLSLSPGGGGGSGGGGSGGGGSEVQLLESGGGLVQPGGSLRLSCAASGFTFSDFWMHWVRQAPGKGLEWISYISGDSGYTNYADSVKGRFTISRDNSKNTLYLQMNSLRAEDTAVYYCARDRPYYYYMDVWGKGTTVTVSSGGGGSGGGGSGGGGSGGGGSDIQMTQSPSSLSASVGDRVTITCRASQSVSRSLAWYQQKPGKAPKLLIYAASSLQSGVPSRFSGSGSGTDFTLTISSLQPEDFATYYCQQYKSYPVTFGQGTKVEIK
light: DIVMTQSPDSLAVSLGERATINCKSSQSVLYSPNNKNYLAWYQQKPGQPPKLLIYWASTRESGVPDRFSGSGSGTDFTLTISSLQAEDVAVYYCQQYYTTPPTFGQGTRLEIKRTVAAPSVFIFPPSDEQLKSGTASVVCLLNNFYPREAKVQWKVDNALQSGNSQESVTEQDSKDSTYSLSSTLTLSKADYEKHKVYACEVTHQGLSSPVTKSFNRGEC
notes: also called Parental molecule; parental PMAB1
B2: PRNT1 (antibody, human IgG1, kappa)
heavy: EVQLLESGGGLVQPGGSLRLSCAASGFTFSDFWMHWVRQAPGKGLEWISYISGDSGYTNYADSVKGRFTISRDNSKNTLYLQMNSLRAEDTAVYYCARDRPYYYYMDVWGKGTTVTVSSASTKGPSVFPLAPSSKSTSGGTAALGCLVKDYFPEPVTVSWNSGALTSGVHTFPAVLQSSGLYSLSSVVTVPSSSLGTQTYICNVNHKPSNTKVDKKVEPKSCDKTHTCPPCPAPEAAGAPSVFLFPPKPKDTLMISRTPEVTCVVVDVSHEDPEVKFNWYVDGVEVHNAKTKPREEQYNSTYRVVSVLTVLHQDWLNGKEYKCKVSNKALPAPIEKTISKAKGQPREPQVYTLPPSREEMTKNQVSLTCLVKGFYPSDIAVEWESNGQPENNYKTTPPVLDSDGSFFLYSKLTVDKSRWQQGNVFSCSVMHEALHNHYTQKSLSLSPGGGGGSAPTSSSTKKTQLQLEHLLLDLQMILNGINNYKNPKLTRMLTFKFYMPKKATELKHLQCLEEELKPLEEALNLAPSKNFHLRPRDLISDINVIVLELKGSETTFMCEYADETATIVEFINRWITFSQSIISTLT
light: DIQMTQSPSSLSASVGDRVTITCRASQSVSRSLAWYQQKPGKAPKLLIYAASSLQSGVPSRFSGSGSGTDFTLTISSLQPEDFATYYCQQYKSYPVTFGQGTKVEIKRTVAAPSVFIFPPSDEQLKSGTASVVCLLNNFYPREAKVQWKVDNALQSGNSQESVTEQDSKDSTYSLSSTLTLSKADYEKHKVYACEVTHQGLSSPVTKSFNRGEC
notes: also called parent PRNT1; parental molecule PRNT1
B3: MIAB169 (antibody, human IgG1, kappa)
heavy: B2 heavy with Y105I
light: B2 light
notes: Y105I variant; also called MIAB169-CHO; MIAB169-HEK

Columns and labels:
Human MAdCAM [1] = molecular target: T1, Human MAdCAM; test: BLI Octet
mouse MAdCAM [2] = molecular target: T2, mouse MAdCAM; test: BLI Octet
Human MAdCAM [3] = molecular target: T1, Human MAdCAM; test: BLI Octet, AHC capture
mouse MAdCAM [4] = molecular target: T2, mouse MAdCAM; test: BLI Octet, AHC capture
cyno MAdCAM = molecular target: T3, cyno MAdCAM (cyno); test: BLI Octet, AHC capture
T3 construct: also called cynomolgus monkey MAdCAM-1

Insulin = molecular target: T4, Insulin (UniProt P01308 25-54; P01308 90-110); test: ELISA on insulin-coated plate
T4 construct: Polyreactivity antigen; mature insulin has A and B chains; also called human insulin

Binder	Kd (Human MAdCAM [1]) [µM]	koff (Human MAdCAM [1]) [s⁻¹]	kon (Human MAdCAM [1]) [M⁻¹ s⁻¹]	response (Human MAdCAM [1])	Kd (mouse MAdCAM [2]) [µM]	koff (mouse MAdCAM [2]) [s⁻¹]	kon (mouse MAdCAM [2]) [M⁻¹ s⁻¹]	response (mouse MAdCAM [2])	Kd (Human MAdCAM [3])	koff (Human MAdCAM [3])	kon (Human MAdCAM [3])	Kd (mouse MAdCAM [4]) [µM]	koff (mouse MAdCAM [4]) [s⁻¹]	kon (mouse MAdCAM [4]) [M⁻¹ s⁻¹]	response (mouse MAdCAM [4])	Kd (cyno MAdCAM) [µM]	binding result (Insulin)	fold lower affinity than PRNT1 (Human MAdCAM [3]) [fold]
B1	0.0376	0.0398	1.06e+06	0.0839	0.124	0.0463	374000	0.256	0.135 µM and 0.115 µM and 0.116 µM and 0.0628 µM	0.0341 s⁻¹ and 0.0351 s⁻¹ and 0.0276 s⁻¹ and 0.0365 s⁻¹	252000 M⁻¹ s⁻¹ and 306000 M⁻¹ s⁻¹ and 238000 M⁻¹ s⁻¹ and 581000 M⁻¹ s⁻¹	0.138	0.0204	148000	0.139	–	–	–
B2	–	–	–	–	–	–	–	–	–	–	–	–	–	–	–	0.013	–	–
B3	–	–	–	–	–	–	–	–	0.266 µM and 0.34 µM	0.0738 s⁻¹	278000 M⁻¹ s⁻¹	–	–	–	–	0.153	no binding (tested: 100 nM)	10
